Among the targets are SARS-CoV-2 Gamma株S-ECD蛋白 (SARS-CoV-2 Gamma株 (P.1)); SARS-CoV-2 Alpha株S-ECD蛋白 (SARS-CoV-2 Alpha株 (B.1.1.7)); SARS-CoV-2 Delta株S-ECD蛋白 (SARS-CoV-2 Delta株 (B.1.617.2)); SARS-CoV-2 WT S-ECD蛋白 (SARS-CoV-2, UniProt P0DTC2 14-1213); SARS-CoV-2 Beta株S-ECD蛋白 (SARS-CoV-2 Beta株 (B.1.351)).
A further assay concerns the target SARS-CoV-2 Gamma株病毒的S蛋白 (SARS-CoV-2 Gamma株 (P.1)). As to the kind of experiment: cell-based or functional assay.
The target of another assay is SARS-CoV-2 Beta株病毒的S蛋白 (SARS-CoV-2 Beta株 (B.1.351)). As to the kind of experiment: cell-based or functional assay.
The next assay addresses SARS-CoV-2 Delta株病毒的S蛋白 (SARS-CoV-2 Delta株 (B.1.617.2)). As to the kind of experiment: cell-based or functional assay.
For another assay, the target named is SARS-CoV-2 Alpha株病毒的S蛋白 (SARS-CoV-2 Alpha株 (B.1.1.7)). As to the kind of experiment: cell-based or functional assay.

B1: 全人源抗SARS-CoV-2单克隆抗体ZWD12 (antibody, V domains shown)
VH: EVQLVESGGGLVQPGGTLRLSCVASGFSFSNYWMSWVRQAPGKGLEWVANIKQDGSETHYVDSVKGRFTISRDNAKNSLYLQMNSLRADDTAVYFCVKDRTDWELIRGYFGHWGQGTQITVSS
VL: DIVMTQTPSSLSLSPGDRATLSCRASENIINYLAWYQQRPGQSPRLLIYDASNRATGIPARFSGSGSGTDFTLTISSLEPEDFAVYYCQQRIIWPPYTFGQGTKVDIKR
What is called Kd is the concentration at which binding is half-saturated. High values mean weaker binding, low ones tighter binding. In general, koff refers to the rate constant with which the complex falls apart. Low readings indicate slow dissociation, high ones fast dissociation. One may read the kon as the rate constant with which the complex forms. Higher therefore signals fast association. For B1, the “假病毒中和 EC50 (luciferase, HEK293T cells)” value in the assay with SARS-CoV-2 Gamma株病毒的S蛋白 was found to be 3.83 ng/mL; with SARS-CoV-2 Beta株病毒的S蛋白 it was 3.56 ng/mL; in the assay with SARS-CoV-2 Delta株病毒的S蛋白, 7.29 ng/mL; with SARS-CoV-2 Alpha株病毒的S蛋白 it was 4.11 ng/mL. For the same molecule, the “真病毒中和 EC50 (Vero E6 cells, crystal violet)” value in the assay with SARS-CoV-2 Beta株病毒的S蛋白 is 69 ng/mL; with SARS-CoV-2 Delta株病毒的S蛋白 it was 79 ng/mL. Moreover, the Kd with SARS-CoV-2 Gamma株S-ECD蛋白 worked out at 1.42 nM; with SARS-CoV-2 Alpha株S-ECD蛋白, 0.826 nM; in the assay with SARS-CoV-2 Delta株S-ECD蛋白 it was 1.91 nM; with SARS-CoV-2 WT S-ECD蛋白 it was 0.895 nM; with SARS-CoV-2 Beta株S-ECD蛋白, 0.991 nM. The koff with SARS-CoV-2 Gamma株S-ECD蛋白 was 0.000146 s⁻¹; with SARS-CoV-2 Alpha株S-ECD蛋白 it was 0.000111 s⁻¹; with SARS-CoV-2 Delta株S-ECD蛋白, 0.000133 s⁻¹; with SARS-CoV-2 WT S-ECD蛋白, 0.000121 s⁻¹; with SARS-CoV-2 Beta株S-ECD蛋白, 0.000102 s⁻¹. The kon in the assay with SARS-CoV-2 Gamma株S-ECD蛋白 was found to be 102000 M⁻¹ s⁻¹; in the assay with SARS-CoV-2 Alpha株S-ECD蛋白, 134000 M⁻¹ s⁻¹; with SARS-CoV-2 Delta株S-ECD蛋白, 69600 M⁻¹ s⁻¹; with SARS-CoV-2 WT S-ECD蛋白, 135000 M⁻¹ s⁻¹; with SARS-CoV-2 Beta株S-ECD蛋白, 103000 M⁻¹ s⁻¹.

The record behind these values is patent CN113735969A (INST MILITARY MEDICINE ACADEMY MILITARY SCIENCES PLA, dated 2021).
